From PMC12065894 (Nature Communications, 2025) come the findings set out here.

This data set concerns the molecule itself. As to the kind of experiment: crystal structure; contact between molecules of the crystal lattice: the cleaved zymogen activation motif of one protease molecule lies in the substrate binding cleft of a neighbouring one; crystals grown at 18 °C.

B1: dasTMPRSS11D (active, autocleaved TMPRSS11D with DDDDK zymogen activation motif) (enzyme)
chain 1: ANWLINECGAGPDLITDDDDK
chain 2: not shown
notes: also called active dasTMPRSS11D; Human Airway Trypsin-like protease
For the protein B1, the binding result was “binds”.
